Reference: patent US20130244255A1, “ANTIBODIES DIRECTED TO GPNMB AND USES THEREOF” (priority 2006, published 2013)

What was measured:
SK-Mel-2 cells = experiment: Apoptosis analysis (Annexin V-FITC / PI); format: cell-based, human; conditions: SK-Mel-2, 48 hour, 1000 ng/mL
Description: (§1) Briefly, cells were pulsed at the indicated times with 30 μM of bromodeoxyuridine (BrdU, Sigma) for 30 min, harvested, fixed and permeabilized in methanol. Nascent DNA synthesis was detected by anti-bromodeoxyuridine-FITC (BD Biosciences, San Jose, Calif.) staining. Total DNA content was detected using propidium iodide (PI, Sigma). For apoptosis analysis, cells were treated as above and labeled with Annexin V-FITC followed by propidium iodide exclusion using the Annexin V-FITC Apoptosis Detection kit I (BD PharMingen, San Diego, Calif.) according to the manufacturer's protocols. Flow cytometry (as described in the previous Example) was used to assay both cell cycle and apoptosis studies.
(§2) To investigate this possibility, analysis of apoptosis using Annexin-V surface binding and loss of propidium iodide (PI) exclusion was performed.

TK-10 control cells = experiment: Apoptosis analysis (Annexin V-FITC / PI); format: cell-based, human; conditions: TK-10, 48 hour, 1000 ng/mL
Description: as §1, §2

GPNMB = target: T1, GPNMB (Homo sapiens, UniProt Q14956); experiment: Binning of antibodies (Luminex competitive binding)
T1 construct: we cloned the human CG56972 extracellular domain (ECD; aa 23-480); made in house; host or cells: HEK 293 cells
T1 sequence (Q14956 23-492): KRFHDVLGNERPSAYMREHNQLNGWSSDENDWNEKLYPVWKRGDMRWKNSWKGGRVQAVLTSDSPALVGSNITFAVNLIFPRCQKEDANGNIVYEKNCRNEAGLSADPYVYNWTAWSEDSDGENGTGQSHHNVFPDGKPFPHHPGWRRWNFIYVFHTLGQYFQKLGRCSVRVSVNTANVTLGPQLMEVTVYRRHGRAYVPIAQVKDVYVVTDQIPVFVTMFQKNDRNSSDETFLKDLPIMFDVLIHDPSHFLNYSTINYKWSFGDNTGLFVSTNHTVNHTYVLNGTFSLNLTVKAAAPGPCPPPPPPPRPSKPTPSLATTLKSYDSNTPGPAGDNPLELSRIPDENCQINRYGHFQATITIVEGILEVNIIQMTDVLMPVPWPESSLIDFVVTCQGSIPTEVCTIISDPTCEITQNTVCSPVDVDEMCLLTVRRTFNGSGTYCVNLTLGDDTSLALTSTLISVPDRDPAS
Description: Certain antibodies, described herein were binned in accordance with the protocol described in U.S. Patent Application Publication No. 20030157730. M×hIgG conjugated beads are prepared for coupling to primary antibody. The volume of supernatant needed is calculated using the following formula: (n+10)×50 μL (where n=total number of samples on plate). Where the concentration is known, 0.5 μg/mL is used. Bead stock is gently vortexed, then diluted in supernatant to a concentration of 2500 of each bead per well or 0.5×10^5/mL and incubated on a shaker in the dark at RT overnight, or 2 hours if at a known concentration of 0.5 μg/mL. Following aspiration, 50 μL of each bead is added to each well of filter plate, then washed once by adding 100 μL/well wash buffer and aspirating. Antigen and controls are added to filter plate 50 μL/well then covered and allowed to incubate in the dark for 1 hour on shaker. Following a wash step, a secondary unknown antibody is added at 50 μL/well using the same dilution (or concentration if known) as is used for the primary antibody. The plates are then incubated in the dark for 2 hours at RT on shaker followed by a wash step. Next, 50 μL/well biotinylated m×hIgG diluted 1:500 is added and allowed to incubate in the dark for 1 hour on shaker at RT. Following a wash step, 50 μL/well Streptavidin-PE is added at 1:1000 and allowed to incubate in the dark for 15 minutes on shaker at RT. Following a wash step, each well is resuspended in 80 μL blocking buffer and read using Luminex. […] Competitive binding by antibodies from […] supports antibody specificity for similar or adjacent epitopes. Non competitive binding supports antibody specificity for unique epitopes.
Three bins were created to further test the binding of six anti-GPNMB antibodies. Bin 1 included GPNMB antibodies (1.2.1), (1.10.1), and (2.22.1). Bin 2 included GPNMB antibodies (2.3.1) and (1.15.1), and Bin 3 included GPNMB antibody (2.10.1). The results of the binning assays are provided below in Tables 8 and 9.

CG56972-expressing cells = experiment: Internalization of cell surface bound antibodies (flow cytometry); format: cell-based, human; conditions: following incubation with CG56972-expressing cells
Description: Internalization of cell surface bound antibodies was assessed by a modified flow cytometry procedure. […] After washing cells, incubation was shifted to 37° C. for 1 hr to allow internalization of bound antibodies. Cells that remained on ice (total surface bound) or that were incubated at 37° C. […] Labeled cells were analyzed by flow cytometry as described above. The percentage of antibody internalized was determined using the GMRs and the following formula:
Percent internalized=Total surface bound (4° C.)−Total surface bound (37° C.)/Total surface bound (4° C.)×100

CR011: fully human monoclonal antibody that specifically binds to GPNMB; VH SEQ ID NO: 20, VL SEQ ID NO: 29
% AnnV+/PI+ UR (SK-Mel-2 cells): 0.45% | % AnnV+/PI− LR (SK-Mel-2 cells): 4.74% | % AnnV−/PI+ UL (SK-Mel-2 cells): 0.36% | % AnnV+/PI+ UR (TK-10 control cells): 0.34% | % AnnV+/PI− LR (TK-10 control cells): 0.55% | % AnnV−/PI+ UL (TK-10 control cells): 0.83% | bin (GPNMB; Table 8): VIII | binning signal against antibody 1.1 (GPNMB; Table 8): 91 | binning signal against antibody 1.11 (GPNMB; Table 8): 10 | binning signal against antibody 1.12 (GPNMB; Table 8): 15 | binning signal against antibody 1.13 (GPNMB; Table 8): 13 | binning signal against antibody 1.15 (GPNMB; Table 8): 0 | binning signal against antibody 1.2 (GPNMB; Table 8): 79 | binning signal against antibody 1.3 (GPNMB; Table 8): 71 | binning signal against antibody 1.7 (GPNMB; Table 8): 21 | binning signal against antibody 1.8 (GPNMB; Table 8): 8 | binning signal against antibody 1.9 (GPNMB; Table 8): 12 | binning signal against antibody xV5 (GPNMB; Table 8): 89 | binning signal against column antibody 1.5 (GPNMB; Table 8): 15 | binning signal against antibody 1.1 (GPNMB; Table 9): 127 | binning signal against antibody 1.11 (GPNMB; Table 9): 19 | binning signal against antibody 1.12 (GPNMB; Table 9): 21 | binning signal against antibody 1.13 (GPNMB; Table 9): 5 | binning signal against antibody 1.15 (GPNMB; Table 9): 0 | binning signal against antibody 1.2 (GPNMB; Table 9): 90 | binning signal against antibody 1.3 (GPNMB; Table 9): 51 | binning signal against antibody 1.7 (GPNMB; Table 9): 17 | binning signal against antibody 1.8 (GPNMB; Table 9): 12 | binning signal against antibody 1.9 (GPNMB; Table 9): 19 | binning signal against antibody xV5 (GPNMB; Table 9): 125 | binning signal against column antibody 1.5 (GPNMB; Table 9): −9 | bin (GPNMB; Table 9, Cut-off = 90): VIII | bin (GPNMB; three bins of six anti-GPNMB antibodies): Bin 2 | internalization (in words) (CG56972-expressing cells): internalized
